In article PMC9305627:

Experiments:
Experiment in all cases: ELISA
UbV.ANKRD13D.4 T12A = UbV.ANKRD13D.4 T12A (UniProt P0CG47)
UbV.ANKRD13D.4 S65A = UbV.ANKRD13D.4 S65A (UniProt P0CG47)
UbV.ANKRD13D.4 Q49A = UbV.ANKRD13D.4 Q49A (UniProt P0CG47)
UbV.ANKRD13D.4 L70A = UbV.ANKRD13D.4 L70A (UniProt P0CG47)
UbV.ANKRD13D.4 W72A = UbV.ANKRD13D.4 W72A (UniProt P0CG47)

- fold effect on affinity against UbV.ANKRD13D.4 (UbV.ANKRD13D.4 T12A): < 3 fold
- fold effect on affinity against UbV.ANKRD13D.4 (UbV.ANKRD13D.4 S65A): < 3 fold
- fold effect on affinity against UbV.ANKRD13D.4 (UbV.ANKRD13D.4 Q49A): < 3 fold
- fold effect on affinity against UbV.ANKRD13D.4 (UbV.ANKRD13D.4 L70A): < 3 fold
- fold effect on affinity against UbV.ANKRD13D.4 (UbV.ANKRD13D.4 W72A): < 3 fold
Binder: RGQQEEEDLQRILQLSLTEH [UIM.ANKRD13D.4 peptide]
